Assay results published in US20250282879A1 (CILAG GMBH INTERNATIONAL, published 2025).

Columns and labels:
[1] = target: T1, recombinant cynomolgus monkey IL-4R (ECD with His-tag, Acro Biosystems) (cynomolgus monkey, UniProt A0A2K5V556 26-232); experiment: SPR, Morrison captured via anti-human IgG-Fc, IL-4R ECD-His analyte
T1 construct: bought; also called cynomolgus IL-4R
Procedure: (§1) Binding kinetics (including affinity) of the bispecific Morrison-H (PRO2198, PRO2199) and Morrison-L (PRO2206, PRO2207) molecules to recombinant human IL-4R protein (ECD with His Tag, Sino Biological) were determined by SPR analysis on a T200 device (Biacore, Cytiva). In this SPR experiment, Morrison molecules were captured via an anti-human IgG-Fc antibody (Human Antibody Capture Kit; Biacore, Cytiva) covalently immobilized to a carboxylmethylated dextran surface (CM5 sensorchip; Biacore, Cytiva) and a titration series of human IL-4R ECD was injected as analyte. After each analyte injection cycle, the sensor chip was regenerated (MgCl₂), and new Morrison antibody was subsequently re-captured. […] The apparent dissociation (kd) and association (kₐ) rate constants and the apparent dissociation equilibrium constant (KD) were calculated with the Biacore analysis software (Biacore Evaluation software Version 3.2, Cytiva) using one-to-one Langmuir binding model and quality of the fits was monitored based on Chi2 and U-value, which are measures for the quality of the curve fitting. The binding level was calculated as the maximum stability binding achieved normalized to the theoretical Rmax. Cross-reactivity to cynomolgus monkey IL-4R was measured using the same setup as for the analysis of human IL-4R kinetics, with the difference that recombinant cynomolgus monkey IL-4R (ECD with His-tag, Acro Biosystems) protein was used as analyte instead of human IL-4R.

[2] = target: T2, recombinant human IL-4R protein (ECD with His Tag, Sino Biological) (human, UniProt P24394 26-232); experiment: as above
T2 construct: extracellular domain; bought; also called human IL-4R ECD; not shown: His Tag
Procedure: as §1

[3] = target: T3, human IL-4R on cells (HEK-Blue IL-4/IL-13 cells, human PBMC, human whole blood) (human, UniProt P24394 26-825); experiment: cell-based or functional assay
[4] = target: T4, recombinant cynomolgus monkey IL-31 (ECD with His Tag, Sino Biological) (cynomolgus monkey); experiment: SPR, Morrison captured on immobilized human IL-4R-Fc, IL-31 analyte
T4 construct: manufactured on demand by Sino Biological; also called cynomolgus IL-31-His; cyno IL-31

[5] = target: T5, cynomolgus IL-4R on transfected HEK293T cells (cynomolgus monkey, UniProt A0A2K5V580 33-832); experiment: flow cytometry, transfected HEK293T cells
T5 construct: whole, on cells; also called cynomolgus IL-4R-expressing HEK293T cells; not shown: V5 Tag fused to the N-terminus of the expression construct
T5 sequence (A0A2K5V580 entry or part of it): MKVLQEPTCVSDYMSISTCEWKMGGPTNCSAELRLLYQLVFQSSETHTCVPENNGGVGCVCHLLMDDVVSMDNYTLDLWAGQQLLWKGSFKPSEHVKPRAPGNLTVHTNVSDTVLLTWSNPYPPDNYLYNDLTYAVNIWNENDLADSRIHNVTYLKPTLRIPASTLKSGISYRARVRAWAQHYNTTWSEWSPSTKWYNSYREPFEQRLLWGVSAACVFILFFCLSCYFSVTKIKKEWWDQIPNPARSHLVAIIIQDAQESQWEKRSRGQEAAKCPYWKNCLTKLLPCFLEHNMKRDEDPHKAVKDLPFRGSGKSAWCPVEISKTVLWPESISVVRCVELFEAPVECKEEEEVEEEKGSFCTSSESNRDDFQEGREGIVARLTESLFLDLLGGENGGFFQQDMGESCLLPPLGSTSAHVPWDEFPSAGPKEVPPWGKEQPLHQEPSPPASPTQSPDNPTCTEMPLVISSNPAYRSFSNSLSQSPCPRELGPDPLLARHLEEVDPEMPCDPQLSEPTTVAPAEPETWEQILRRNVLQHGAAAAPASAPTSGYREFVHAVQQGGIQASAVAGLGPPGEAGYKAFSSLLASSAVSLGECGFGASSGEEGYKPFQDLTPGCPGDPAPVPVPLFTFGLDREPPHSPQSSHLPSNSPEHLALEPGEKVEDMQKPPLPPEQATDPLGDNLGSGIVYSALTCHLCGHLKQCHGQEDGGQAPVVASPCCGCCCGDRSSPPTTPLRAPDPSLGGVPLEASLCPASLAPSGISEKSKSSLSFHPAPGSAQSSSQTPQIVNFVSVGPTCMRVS
Excerpt: (§2) To test binding of the Morrison-H and Morrison-L antibodies PRO2198, PRO2199, PRO2206 and PRO2207 to human or cynomolgus IL-4R-expressing HEK293T cells, HEK293T cells were transfected with human and cynomolgus IL-4R plasmids and mock plasmid using Lipofectamine3000. Binding of an antibody targeting V5 Tag, which is fused to the N-terminus of human and cynomolgus IL-4R expression constructs, would confirm successful expression of both targets and was thus used as a positive control for plasma membranous binding. The Morrison-H molecule PRO2077 was used as negative control for cynomolgus IL-4R binding since this molecule had not shown any cross-reactivity to cynomolgus IL-4R (see section 5.3.).
(§3) 50,000 transfected HEK293T cells per well were seeded in a 96-well plate. 5-fold serial dilutions of the Morrison-H and Morrison-L antibodies PRO2198, PRO2199, PRO2206 and PRO2207 and of the control molecule PRO2077, which is not cross-reactive to cynomolgus IL-4R, were added at concentrations ranging from 5,000 to 0.32 ng/ml to the plates and incubated for 60 min at 4° C. on a shaker. Supernatants were removed and detection reagent was added for flow cytometry analysis. The geometric mean of the APC fluorescence intensity of single cells was calculated.

[6] = target: T6, human IL-4R on transfected HEK293T cells (human, UniProt P24394 26-825); experiment: flow cytometry, transfected HEK293T cells
T6 construct: whole, on cells; also called human IL-4R-expressing HEK293T cells; not shown: V5 Tag fused to the N-terminus of the expression construct
Excerpt: as §2, §3

[7] = target: T3, human IL-4R on cells (HEK-Blue …); experiment: cell-based or functional assay; remark: listed apart in the source
[8] = target: T4, recombinant cynomolgus monkey IL-31 …; experiment: cell-based or functional assay
[9] = target: T7, recombinant human IL-31 protein (Peprotech) (human, UniProt Q6EBC2 24-164); experiment: cell-based or functional assay
T7 sequence (looked up): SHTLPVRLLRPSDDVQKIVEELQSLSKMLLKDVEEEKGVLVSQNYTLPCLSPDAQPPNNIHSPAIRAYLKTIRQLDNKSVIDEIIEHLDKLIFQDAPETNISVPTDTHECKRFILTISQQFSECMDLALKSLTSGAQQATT

[10] = target: T3, human IL-4R on cells (HEK-Blue …); experiment: cell-based or functional assay; remark: listed apart in the source
[11] = target: T3, human IL-4R on cells (HEK-Blue …); experiment: cell-based or functional assay; remark: listed apart in the source
[12] = target: T7, recombinant human IL-31 protein …; experiment: cell-based or functional assay; remark: listed apart in the source

T1 sequence (A0A2K5V556 entry or part of it limits assumed): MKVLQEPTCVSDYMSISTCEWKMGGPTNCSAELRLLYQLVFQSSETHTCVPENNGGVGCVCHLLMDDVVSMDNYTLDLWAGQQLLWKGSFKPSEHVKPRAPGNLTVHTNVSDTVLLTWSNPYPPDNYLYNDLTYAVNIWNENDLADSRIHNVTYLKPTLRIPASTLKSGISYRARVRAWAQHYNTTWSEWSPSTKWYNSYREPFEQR

B1: PRO2198 (bispecific antibody, human IgG4 S228P, kappa)
light: DIQMTQSPSSLSARVGDRVTITCQASEDIESYLAWYQQKPGKAPKLLIYRASTLAYGVPSRFSGSGSGRDFTLTISSLQPEDFATYYCLGSSYSTGSNIFGQGTKVEIKRTVAAPSVFIFPPSDEQLKSGTASVVCLLNNFYPREAKVQWKVDNALQSGNSQESVTEQDSKDSTYSLSSTLTLSKADYEKHKVYACEVTHQGLSSPVTKSFNRGEC
heavy: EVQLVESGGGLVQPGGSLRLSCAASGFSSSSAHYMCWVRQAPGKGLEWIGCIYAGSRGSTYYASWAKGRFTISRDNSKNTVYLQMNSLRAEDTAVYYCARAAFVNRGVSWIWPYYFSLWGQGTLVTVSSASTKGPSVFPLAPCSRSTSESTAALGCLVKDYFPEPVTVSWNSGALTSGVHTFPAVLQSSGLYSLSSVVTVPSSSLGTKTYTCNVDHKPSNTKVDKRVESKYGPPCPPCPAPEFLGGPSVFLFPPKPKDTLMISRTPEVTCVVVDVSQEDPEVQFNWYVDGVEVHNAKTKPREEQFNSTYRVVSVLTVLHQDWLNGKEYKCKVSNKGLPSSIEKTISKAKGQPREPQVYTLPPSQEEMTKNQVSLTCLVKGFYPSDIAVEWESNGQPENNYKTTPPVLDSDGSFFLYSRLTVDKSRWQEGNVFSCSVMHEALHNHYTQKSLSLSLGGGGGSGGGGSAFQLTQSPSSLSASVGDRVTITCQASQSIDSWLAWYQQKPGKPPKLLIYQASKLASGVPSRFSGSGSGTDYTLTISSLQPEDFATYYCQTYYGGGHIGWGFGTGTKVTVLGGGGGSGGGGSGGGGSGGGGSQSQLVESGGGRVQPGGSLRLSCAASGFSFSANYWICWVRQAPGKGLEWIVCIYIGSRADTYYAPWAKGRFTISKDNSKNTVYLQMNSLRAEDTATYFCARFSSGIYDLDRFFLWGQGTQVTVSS
notes: IgG4 (S228P) Morrison-H, anti-IL-4R Fab arms, anti-IL-31 scFv on the C-terminus of the heavy chain; tetravalent, bispecific; also called Morrison-H; MorrH
Kd [1]: 0.144 nM
koff [1]: 4.9e-05 s⁻¹
kon [1]: 370000 M⁻¹ s⁻¹
Kd [2]: 0.291 nM
koff [2]: 0.000101 s⁻¹
kon [2]: 352000 M⁻¹ s⁻¹
Mean IC50, human IL-13-induced signaling, stat-6 reporter gene assay [3]: 0.0221 nM
Kd [4]: 0.01 nM
EC50 [5]: 0.97 nM
EC50 [6]: 1.11 nM
IC50, IL-4-induced TARC secretion in human whole blood [7]: < 0.5 nM
IC50, cynomolgus IL-31-induced IL-31RA/OSMR dimerization (RLU) [table under the graph] [8]: 0.959 nM
Mean IC50, human IL-31-induced signaling, IL-31RA/OSMR dimerization assay [9]: 0.198 nM
Mean IC50, human IL-4-induced signaling, stat-6 reporter gene assay [10]: 0.0239 nM
IC50, IL-4-induced CD23 expression, memory B cells [11]: 4.47 nM
IC50, IL-4-induced CD23 expression, monocytes (blood donor 1) [11]: 0.0904 nM
IC50, IL-4-induced CD23 expression, naive B cells [11]: 1.37 nM
IC50 (read off the curve), human IL-31-induced IL-31RA/OSMR dimerization, with an excess of IL-4R extracellular domain in the medium [12]: ~0.2 nM
